Positions count from the first letter of the chain named.
T1: baculovirus-produced soluble human ICAM-R (Homo sapiens, UniProt P32942)
T1 sequence (P32942 30-485 limits assumed): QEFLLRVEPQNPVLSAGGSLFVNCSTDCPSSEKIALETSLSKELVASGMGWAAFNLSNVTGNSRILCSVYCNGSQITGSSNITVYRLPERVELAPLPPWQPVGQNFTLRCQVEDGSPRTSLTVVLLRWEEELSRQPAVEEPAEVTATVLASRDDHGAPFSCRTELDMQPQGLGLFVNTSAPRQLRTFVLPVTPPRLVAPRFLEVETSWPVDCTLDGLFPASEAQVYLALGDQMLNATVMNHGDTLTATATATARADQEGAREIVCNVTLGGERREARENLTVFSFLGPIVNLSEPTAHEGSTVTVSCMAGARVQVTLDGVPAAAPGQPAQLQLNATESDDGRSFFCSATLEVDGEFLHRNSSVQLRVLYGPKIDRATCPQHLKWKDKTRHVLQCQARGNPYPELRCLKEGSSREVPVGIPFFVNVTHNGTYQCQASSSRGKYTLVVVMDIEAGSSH

B1: Tyr498Phe: ICAM-R cytoplasmic domain point mutant (protein, UniProt P32942 30-547, looked up, variant Y498F)
Intercellular adhesion …: QEFLLRVEPQNPVLSAGGSLFVNCSTDCPSSEKIALETSLSKELVASGMGWAAFNLSNVTGNSRILCSVYCNGSQITGSSNITVYRLPERVELAPLPPWQPVGQNFTLRCQVEDGSPRTSLTVVLLRWEEELSRQPAVEEPAEVTATVLASRDDHGAPFSCRTELDMQPQGLGLFVNTSAPRQLRTFVLPVTPPRLVAPRFLEVETSWPVDCTLDGLFPASEAQVYLALGDQMLNATVMNHGDTLTATATATARADQEGAREIVCNVTLGGERREARENLTVFSFLGPIVNLSEPTAHEGSTVTVSCMAGARVQVTLDGVPAAAPGQPAQLQLNATESDDGRSFFCSATLEVDGEFLHRNSSVQLRVLYGPKIDRATCPQHLKWKDKTRHVLQCQARGNPYPELRCLKEGSSREVPVGIPFFVNVTHNGTYQCQASSSRGKYTLVVVMDIEAGSSHFVPVFVAVLLTLGVVTIVLALMYVFREHQRSGSYHVREESTFLPLTSMQPTEAMGEEPSRAE
B2: Tyr490Phe: ICAM-R cytoplasmic domain point mutant (protein, UniProt P32942 30-547, looked up, variant Y490F)
Intercellular adhesion …: B1 Intercellular adhesion … with Y490F, F498Y
B3: Ser496Ala: ICAM-R cytoplasmic domain point mutant (protein, UniProt P32942 30-547, looked up, variant S496A)
Intercellular adhesion …: B1 Intercellular adhesion … with S496A, F498Y
B4: Leu499Ala: ICAM-R cytoplasmic domain point mutant (protein, UniProt P32942 30-547, looked up, variant L499A)
Intercellular adhesion …: B1 Intercellular adhesion … with F498Y, L499A
B5: T38/A: ICAM-R/IgG chimera, Thr38 changed to Ala (protein)
chain: T1 sequence (P32942 30-485 limits assumed) with T38A, R86G, D114G, P328T, G453F
modifications: left off: a dimerising Fc or GST
notes: ICAM-R/IgG chimera, Thr38 changed to Ala
B6: MuVHVS/MuVK: chimeric ICR-8.1: murine VH with Val2, Ser7 and murine VK, human IgG4/kappa constant regions (antibody, V domains shown)
VH: EVQLQQSGPELVKPGASVKISCKASGYSFTDCIILWVKQSHGKGLEWIGKINPYFGTTTYNLKFKGKATLTVDKSSSTAHMQLNSLTSEDSAVYYCARKEAYPDAMDYWGQGTSVTVSS
VL: DAVMTQTPLSLPVSLGDQASISCRSSQSLVHSNGDTYLHWYLQKPGQSPQLLIYKVSNRFSGVPDRFSGSGSGTDFTLKLSRVEAEDLGVYFCSQSTHVPYTFGGGTKLEIK
B7: MuVHVST/MuVK: chimeric ICR-8.1, MuVHVS heavy chain with Thr28, murine VK (antibody, V domains shown)
VH: B6 VH with S28T
VL: B6 VL
B8: HuVH/MuVK: ICR-8.1 humanized VH (Ala71) with murine VK (antibody, V domains shown)
VH: QVQLVQSGAEVKKPGASVKVSCKASGYTFTDCIILWVRQAPGQGLEWMGKINPYFGTTTYNLKFKGRVTITADTSTSTAYMELSSLRSEDTAVYYCARKEAYPDAMDYWGQGTLVTVSS
VL: B6 VL
B9: HuVHV/MuVK: ICR-8.1 humanized VH with Thr28 and Val71, murine VK (antibody, V domains shown)
VH: B8 VH with A72V
VL: B6 VL
B10: miJuVH/MuVK: ICR-8.1 miHuVH (Ala60, Gln61, Gln64) heavy chain with murine VK (antibody, V domains shown)
VH: B8 VH with N61A, L62Q, K65Q
VL: B6 VL

system: J77.50.3 cells; experiment: IL-2 induction in J77.50.3 lines expressing ICAM-R variants; type: cell-based, human; details: repeated experiments; Vector 0.52
Experimental: This dose of antibody alone provides minimal signalling for IL-2 release. The OKT3 treatment was removed and replaced with buffer alone or anti-ICAM-R (ICR-1.1) (10 ug/ml in PBS-D) and incubated at 37° C. for at least 2 hours. Monoclonal antibody coating was done in replicates of two or more wells and pooled to provide sufficient quantities of conditioned media for ELISA and/or bioassay. Two hundred fifty thousand Jurkat cells or transfectants thereof, were placed into antibody coated wells or buffer coated negative control wells in 0.1 ml of RPMI complete medium. Following incubation of about 16-24 hrs at 37° C. in a humidified atmosphere containing 5% CO2, the medium was transferred to a fresh 96 well round bottom plate, spun to pellet cells carried over and transferred to a fresh plate. Samples were frozen and stored at −70° C. IL-2 ELISAs were performed using commercially available kits (Biosource Intl. Co., Carmarille, Calif.) by making serial dilutions of the samples.
Experiments were performed using two independently isolated cell lines for each plasmid construct or the vector alone. Stable lines expressing similar levels of ICAM-R variants, as determined by indirect flow cytometry, were chosen for functional studies. Cells were costimulated with plate immobilized monoclonal antibodies ICR-1.1 and OKT3, and IL-2 release from the lines was quantitated by ELISA as previously described in Example 25C. Results were expressed as fold increase of IL-2 released from cells plated onto co-immobilized ICR-1.1 (10 μg/ml) plus OKt3 (1 μg/ml) divided by release from OKT3 ([…]) alone. The full length ICAM-R protein (haFL) gave 3.1 fold induction. The deletions gave the following fold inductions: haCTΔ505 induction was 1.5 fold, haCTΔ493 induction was 1.3 fold, haCTΔ484 was 0.8 fold. Vector control induction was 0.7 fold. […] In addition, removal of the residues 505-518 leads to the most significant reduction in co-stimulatory responsiveness. This implies that residues 505-518 play a relatively larger role in the response as compared to residues 484-505.

Molecule	IL-2 Induction (Fold Stimulation)
B1	1.6 Fold
B2	1.8 Fold
B3	˜6 Fold
B4	˜6 Fold

same assay, conditions: vector control 0.7 fold

Molecule	fold increase of IL-2 released (ICR-1.1 plus OKT3 divided by OKT3 alone)
B3	Neither ICAM-R mutation affected IL-2 secretion
B4	Neither ICAM-R mutation affected IL-2 secretion

system: J77.50.3 cell lines; experiment: Cell spreading on ICR-1.1 coated plastic; type: cell-based, human; details: 20 minutes at 37° C.
Experimental: To ascertain additional functional consequences of ICAM-R carboxyl terminal deletions, the Jurkat cell lines expressing the. ICAM-R variants described above were tested for the ability to adhere and spread on antibody coated plastic or to undergo antibody-mediated aggregation. Bacterial petri plates were coated with 50 μl drops of ICR-1.1 or w6/32 (10 μg/ml) (anti-MHC class I isotype matched control monoclonal antibody) in PBS for 120 minutes at 37° C. The plastic was rinsed twice prior to spotting 50 μl drops of J77.50.3 cell lines. Duplicate cell lines expressing these proteins at equivalent levels were tested. After 20 minutes at 37° C. the plate was flooded with 2% glutaraldehyde in PBS and incubated for 30 minutes to fix adherent cells. Fixed cells were rinsed twice with PBS and scored visually for the ability to flatten and spread. […] Weyrich et al., J. Clin. Invest., 95: 2297-2303 (1995) recently described the effect of a ICR-1.1 coated plastic surface on normal monocytes from peripheral blood. After two hours, these cells flattened down and spread with a similar overall morphology to that seen with the haFL expressing J77.50.3 cell line.

Molecule	spreading on ICR-1.1 coated plastic
B1	spread onto the ICR-1.1 coated plastic surface
B2	incapable of flattening down onto the ICR-1.1 coated surface
B3	Neither ICAM-R mutation affected
B4	Neither ICAM-R mutation affected

system: J77.50.3 cell lines; experiment: ICR-1.1 induced aggregation of J77.50.3 lines; type: cell-based, human; details: ICR-1.1 10 μg/ml; 1 and 24 hours
Experimental: One of these monoclonal antibodies (ICR-1.1) was used to induce aggregation of the J77.50.3 cell lines expressing either full length ICAM-R (haFL) or carboxy terminal variants of ICAM-R. ICR-1.1 was added to 200,000 cells at 10 μg/ml in 96 well plates and incubated 37° C. At 1 and 24 hours after incubation the wells were visually screened for aggregates.

Molecule	ICR-1.1 induced aggregation
B1	aggregation competent
B2	incapable of forming inducible aggregates
B3	Neither ICAM-R mutation affected
B4	Neither ICAM-R mutation affected

same assay, conditions: repeated experiments; Vector 17

Molecule	Percent Aggregation [%]
B3	60
B4	60

system: JY cells (LFA-1) binding to ICAM-R/IgG; experiment: JY cell binding to plate-bound ICAM-R/IgG chimeras; type: cell-based, human; details: not given
Experimental: The binding of the lymphoblastoid cell line JY, which expresses LFA-1, to wild type ICAM-R/IgG chimera was examined in the presence and absence of LFA-1 specific antibodies or antibodies specific for either domain 1 or 2 of ICAM-R. ICAM-R chimeras were diluted to 10 μg/ml in 0.1M Na-carbonate/bicarbonate buffer pH 9.6 and used to coat triplicate wells (50 μl/well) of an Immulon 4 96-well plate (Dynatech) overnight at 4° C. Wells were washed three times in PBS and blocked with 1% BSA (in PBS) for 1 hour at 37° C. JY cells were labeled with the fluorescent dye Calcein (Moleculat Probes, Eugene, Oreg.) at 8 μg/ml at 37° C. in serum free RPMI for 20 minutes. Cells were washed with RPMI and resuspended in binding buffer (0.2% HSA in RPMI. Approximately 1×10^5 cells were added to each well containing the binding buffer with or without antibody (20 μg/ml of ICR-2.1, ICR-1.1, ICR-3.1, ICR-5.1, ICR-7.1, ICR-8.1, ICR-4.2, ICR-6.2, ICR-9.2, TS1/22 or 60.3) so that the final volume was 0.35 ml. Plates were incubated at 37° C. in the dark for 45 minutes and input fluorescence was quantitated with a fluorescence reader (Millipore) in a 96-well format. Unbound cells were removed by inverting the plate in 0.1% BSA in PBS for 20 minutes. Bound cells were quantitated by measuring the remaining fluorescence and presented as percent input minus background binding to wells coated with BSA alone.

Molecule	reduction in JY cell adhesion to variant ICAM-R/IgG chimera
B5	70-80%

molecular target: T1, baculovirus-produced soluble human ICAM-R; experiment: ELISA binding of recombinant ICR-8.1 antibodies; details: humanized/chimeric ICR-8.1 chain combinations, human IgG4/kappa

Molecule	binding to ICAM-R (ELISA), recombinant ICR-8.1 antibodies
B6	equivalence in binding to ICAM-R
B7	equivalence in binding to ICAM-R
B8	equivalence in binding to ICAM-R
B9	equivalence in binding to ICAM-R
B10	equivalence in binding to ICAM-R

From US20040248211A1, “ICAM-related protein” (priority 1992, published 2004)
